Changes are numbered by the printed parent chain.

The chains are these.
B1: suPAR_DB06_F03 (scFv, V domains shown)
VH: QVQLVQSGAEVKKPGASVKVSCKASGYSFTNYYMHWVRQAPGQGLEWMGWIDHENGNTIYDQKFQGRVTMTRDTSTSTVYMELSSLRSEDTAVYYCARGNDVDWFVYWGQGTLVTVSS
VL: DIQMTQSPSSLSASVGDRVTITCSASQSVSYMYWYQQKPGKAPKLLIYRTSNLASGVPSRFSGSGSGTDFTLTISSLQPEDFATYYCQQYHSYPPTFGGGTKVEIK
B2: suPAR_DB06_E01 (scFv, V domains shown)
VH: QVQLVQSGAEVKKPGASVKVSCKASGFNFKDYYIHWVRQAPGQGLEWMGWMDPSSGNTAYAQKFQGRVTMTRDTSTSTVYMELSSLRSEDTAVYYCARGYDVDWFVYWGQGTLVTVSS
VL: B1 VL with S26R, V29I
B3: suPAR_DB06_G04 (scFv, V domains shown)
VH: B1 VH with S28T, N31G, D52N, H53P, N55G, N57S, I59N, D61E, N100Y
VL: B1 VL with S26R, Q27Y
B4: suPAR_DB06_F05 (scFv, V domains shown)
VH: B1 VH with Y27D, N31G, M34I, N100Y
VL: B1 VL with S26R, Q27S
B5: suPAR_DB06_G01 (scFv, V domains shown)
VH: B1 VH with Y27D, S28T, N31G, N57S, D61A, N100Y
VL: B1 VL with S26R, Q27S
B6: suPAR_DB06_F06 (scFv, V domains shown)
VH: B1 VH with Y27G, S28T, T30I, N31G, Y32H, M34V, N100Y
VL: B1 VL with S26R, Q27S
B7: suPAR_DB06_F11 (scFv, V domains shown)
VH: B1 VH with S28T, N57S, D61A, N100Y
VL: B1 VL with S26R, Q27S, A54Q
B8: suPAR_DB06_F12 (scFv, V domains shown)
VH: B1 VH with S28T, T30S, N31S, H53P, D61A, N100Y
VL: B1 VL with S24R, S26R
B9: suPAR_DB06_G03 (scFv, V domains shown)
VH: B1 VH with S28T, T30S, N31S, H53P, N55G, D61A, N100Y
VL: B1 VL with S26R, Q27S
B10: suPAR_DB06_G06 (scFv, V domains shown)
VH: B1 VH with Y27F, S28T, N31A, H53P, D61A, N100Y
VL: B1 VL
B11: suPAR_DB06_F08 (scFv, V domains shown)
VH: B1 VH with S28T, N31G, Y32N, M34V, E54S, N100Y
VL: B1 VL with S26R, Q27S
B12: suPAR_DB06_F04 (scFv, V domains shown)
VH: B1 VH with S28R, N31S, H53P, D61A, N100Y
VL: B1 VL with S26R
B13: suPAR_DB06_F09 (scFv, V domains shown)
VH: B1 VH with S28T, N31T, H53P, N55G, N100Y
VL: B1 VL
B14: suPAR_DB06_G02 (scFv, V domains shown)
VH: B1 VH with S28N, F29I, N31D, M34I, H53P, N57S, N100Y
VL: B1 VL with S24R, S26R, Q27S
B15: suPAR_DB06_C05 (scFv, V domains shown)
VH: QVQLVQSGAEVKKPGASVKVSCKASGGTFSSYAISWVRQAPGQGLEWMGVIDPSGGTTDYAQKFQGRVTMTRDTSTSTVYMELSSLRSEDTAVYYCARGYDVDWFVYWGQGTLVTVSS
VL: DIQMTQSPSSLSASVGDRVTITCRTSQSISSFLNWYQQKPGKAPKLLIYDVSHLESGVPSRFSGSGSGTDFTLTISSLQPEDFATYYCQQYHSYPPTFGGGTKVEIK
B16: suPAR_DB03_A12 (scFv, V domains shown)
VH: QVQLVQSGAEVKKPGASVKVSCKASGYTFSRYYMHWVRQAPGQGLEWIGWMNPNTGDTGYAQKFQGRVTMTRDTSTSTVYMELSSLRSEDTAVYYCARGYDVDFFVYWGQGTLVTVSS
VL: DIQMTQSPSSLSASVGDRVTITCRASQGISGWLAWYQQKPGKAPKLLIYDASSLQSGVPSRFSGSGSGTDFTLTISSLQPEDFATYYCQQSYSDPLTFGGGTKVEIK
notes: screened as scFv
B17: suPAR_DB04_E02 (scFv, V domains shown)
VH: B1 VH with S28T, N31S, H53P, N57S, N100Y
VL: B1 VL with S24R, S26R, Q27S, R49A
notes: scFv clone from phage display
B18: suPAR_DB01_C01 (scFv, V domains shown)
VH: B1 VH with S28T, N31G, N100Y
VL: B1 VL with S26R, Q27S
notes: screened as scFv
B19: suPAR_DB01_A06 (scFv, V domains shown)
VH: B1 VH with S28T, N31S, N100Y
VL: B1 VL with S24R, S26R
notes: screened as scFv
B20: suPAR_DB01_A04 (scFv, V domains shown)
VH: B1 VH with S28T, N31G, N100Y
VL: B1 VL
notes: screened as scFv
B21: suPAR_DB01_A03 (scFv, V domains shown)
VH: B1 VH with S28T, N31S, Y32N, M34I, N57S, I59S, N100Y
VL: B1 VL with S26R, Q27S
notes: screened as scFv
B22: suPAR_DB01_A05 (scFv, V domains shown)
VH: B1 VH with S28T, N31G, N100Y
VL: B1 VL with S24R, S26R
notes: screened as scFv
B23: suPAR_DB01_A02 (scFv, V domains shown)
VH: EVQLEESGAELVRPGALVKLSCKASGFNIKDYYIHWVKQRPEQGLEWIGWIDHENGNTIYDPKFQGKASITLDTSSNTAYLQLNSLTSEDTAVYYCARGYDVDWFVYWGQGTLVTVSS
VL: QIVLTQSPAIMSASPGEKVTIYCSARSSVSYMYWYQQKPGSSPKPWIYRTSNLASGVPARFSGSGSGTSYSLTISSMEAEDAATYYCQQYHSYPPTFGGGTKLEIK
notes: screened as scFv

The first test concerns the target T1, human soluble urokinase plasminogen activator receptor (suPAR) (human, UniProt Q03405 23-303, limits assumed).
T1 construct: Target antigen of the scFv off-rate screen; also called hsuPAR; human suPAR
Nature of the test: BLI (Octet) off-rate screen of scFv clones. For orientation: Biolayer interferometry detects binding as a change in optical thickness at a sensor tip.
T1 sequence (Q03405 23-303 limits assumed): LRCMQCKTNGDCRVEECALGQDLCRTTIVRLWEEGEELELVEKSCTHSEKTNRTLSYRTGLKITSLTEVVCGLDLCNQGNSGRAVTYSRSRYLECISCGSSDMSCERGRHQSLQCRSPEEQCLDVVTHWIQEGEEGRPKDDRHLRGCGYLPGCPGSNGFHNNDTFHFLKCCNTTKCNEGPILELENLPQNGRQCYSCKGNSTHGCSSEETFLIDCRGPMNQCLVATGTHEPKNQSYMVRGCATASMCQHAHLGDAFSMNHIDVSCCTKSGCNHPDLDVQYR
For the molecule B1, the koff amounted to 0.004 s⁻¹.
Same read-out and setting: as for B2, the figure is 0.00483 s⁻¹; as for B3, 0.00549 s⁻¹; as for B4, 0.00531 s⁻¹.
Same read-out and setting: the same measure for B5: 0.00148 s⁻¹; for B6: 0.00331 s⁻¹.
Molecule B7 registered a koff of 0.000947 s⁻¹. This koff lies about 3.5-fold lower than the previous one.
Regarding B8, the koff was 0.00426 s⁻¹.
B9 had a koff of 0.00381 s⁻¹. This koff and that of the molecule before are within 1.5-fold of each other.
Same read-out and setting: the same measure for B10: 0.00431 s⁻¹; for B11: 0.00174 s⁻¹.
The same measure, in the same setting: the same measure for B12: 0.00574 s⁻¹.
Still for that read-out and setting: the same measure for B13: 0.00302 s⁻¹; for B14: 0.00384 s⁻¹.
For B15, the koff amounted to 0.373 s⁻¹.

Another test concerns the target T2, cynomolgus soluble urokinase plasminogen activator receptor (suPAR) (cynomolgus, UniProt Q9GK78 23-303, limits assumed).
T2 construct: Target antigen of the scFv off-rate screen; also called cynomolgus suPAR; cynomolgus uPAR
As to the kind of experiment: BLI (Octet) off-rate screen of scFv clones.
Target sequence in this assay (Q9GK78 23-303 limits assumed): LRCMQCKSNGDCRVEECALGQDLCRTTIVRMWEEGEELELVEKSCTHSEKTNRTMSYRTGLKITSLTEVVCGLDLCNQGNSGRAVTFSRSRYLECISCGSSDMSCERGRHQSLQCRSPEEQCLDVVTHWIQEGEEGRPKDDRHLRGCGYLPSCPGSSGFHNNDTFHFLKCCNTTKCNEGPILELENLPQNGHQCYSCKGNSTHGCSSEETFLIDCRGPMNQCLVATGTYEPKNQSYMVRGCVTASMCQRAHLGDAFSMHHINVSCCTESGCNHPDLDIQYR
B1 returned a koff of 0.00059 s⁻¹.
In turn, B2 came in with a koff of 0.000126 s⁻¹.
Still for that read-out and setting: as for B3, the figure is 0.000223 s⁻¹; as for B4, 3.1e-07 s⁻¹; as for B5, 0.000134 s⁻¹.
The same measure, in the same setting: as for B6, the figure is 0.00055 s⁻¹; as for B7, 0.00059 s⁻¹.
The same measure, in the same setting: as for B8, the figure is 0.000195 s⁻¹.
As to B9, the koff was found to be 0.000231 s⁻¹. This koff and that of the molecule before are within 1.5-fold of each other.
Still for that read-out and setting: the same measure for B10: 5.28e-07 s⁻¹; for B11: 0.000537 s⁻¹; for B12: 0.000315 s⁻¹.
Still for that read-out and setting: as for B13, the figure is 0.000353 s⁻¹.
The same measure, in the same setting: as for B14, the figure is 0.000375 s⁻¹; as for B15, 0.0623 s⁻¹.

A further test addresses T3, human soluble urokinase plasminogen activator receptor (hsuPAR) (human, UniProt Q03405 23-303, limits assumed).
T3 construct: Target antigen of the off-rate screen; also called human suPAR; rhuPAR-His
Nature of the test: BLI (Octet) off-rate screen of scFv clones.
T3 sequence (Q03405 23-303 limits assumed): as the sequence (Q03405 23-303 limits assumed) above
The molecule B16 showed a koff of 0.0544 s⁻¹.

Another test has as its target T4, human soluble urokinase plasminogen activator receptor (hsuPAR) (human, UniProt Q03405 23-303, limits assumed).
T4 construct: also called human suPAR; rhuPAR-His
Nature of the test: off-rate screen of scFv clones (kdis), Octet BLI.
T4 sequence (Q03405 23-303 limits assumed): as above
On to B17, for which the koff worked out at 0.00497 s⁻¹.

For a further test, the target named is T5, human soluble urokinase plasminogen activator receptor (suPAR) (human, UniProt Q03405 23-303, limits assumed).
T5 construct: Target antigen of the off-rate screen; also called hsuPAR; human suPAR
As to the kind of experiment: off-rate (kdis) screen of scFv clones, biosensor (Octet).
T5 sequence (Q03405 23-303 limits assumed): as above
For the molecule B18, the koff worked out at 0.00122 s⁻¹.
The same measure, in the same setting: the same measure for B19: 0.00253 s⁻¹.
As for B20, the koff was found to be 0.000911 s⁻¹.
On the same count and under the same terms, as for B21, the figure is 0.00256 s⁻¹.
The same measure, in the same setting: the same measure for B22: 0.00174 s⁻¹; for B23: 3.54e-07 s⁻¹.

Another test addresses T6, cynomolgus soluble urokinase plasminogen activator receptor (suPAR) (cynomolgus, UniProt Q9GK78 23-303, limits assumed).
T6 construct: Target antigen of the off-rate screen; also called cynomolgus uPAR; cynomolgus suPAR
Described as above.
Target sequence in this assay (Q9GK78 23-303 limits assumed): as the sequence (Q9GK78 23-303 limits assumed) above
In turn, B18 showed a koff of 0.000266 s⁻¹.
Same read-out and setting: as for B19, the figure is 4.27e-07 s⁻¹.
Regarding B20, the koff amounted to 0.00021 s⁻¹. This koff lies about 490-fold higher than the previous one.
Same read-out and setting: as for B21, the figure is 0.000231 s⁻¹; as for B22, 0.000326 s⁻¹.

The koff is the rate constant with which the complex falls apart. Read a low koff as slow dissociation.

These data come from patent US20250215104A1 (WALDEN BIOSCIENCES, published 2025).
